Laboratory results taken from patent US9994628B2, “Peptides and combination of peptides for use in immunotherapy against various tumors” (IMMATICS BIOTECHNOLOGIES GMBH, priority 2015, dated 2018).

These substances were tested against HLA-A*02:01 (Homo sapiens, UniProt P04439, D140Y/D185E/D98H/E176V/E277Q/G131W/G231S/I119V/I121R/I166T/I218V/L300P/L318F/N151K/N90K/P208A/P217A/Q86G/Q94H/R138H/R169H/T345S) (assay: MHC binding assay: UV-ligand exchange and β2m ELISA (peptide exchange yield, Table 7)). Details: binding of HLA-class I restricted peptides to HLA-A*02:01, UV-ligand exchange.
Source text: Candidate peptides for T cell based therapies according to the present invention were further tested for their MHC binding capacity (affinity). The individual peptide-MHC complexes were produced by UV-ligand exchange, where a UV-sensitive peptide is cleaved upon UV-irradiation, and exchanged with the peptide of interest as analyzed. Only peptide candidates that can effectively bind and stabilize the peptide-receptive MHC molecules prevent dissociation of the MHC complexes. To determine the yield of the exchange reaction, an ELISA was performed based on the detection of the light chain (β2 m) of stabilized MHC complexes. The assay was performed as generally described in Rodenko et al. (Rodenko et al., 2006).
96 well MAXISorp plates (NUNC) were coated over night with 2 ug/ml streptavidin in PBS at room temperature, washed 4× and blocked for 1 h at 37° C. in 2% BSA containing blocking buffer. Refolded HLA-A*02:01/MLA-001 monomers served as standards, covering the range of 15-500 ng/ml. Peptide-MHC monomers of the UV-exchange reaction were diluted 100 fold in blocking buffer. Samples were incubated for 1 h at 37° C., washed four times, incubated with 2 ug/ml HRP conjugated anti-β2 m for 1 h at 37° C., washed again and detected with TMB solution that is stopped with […]. Absorption was measured at 450 nm. Candidate peptides that show a high exchange yield (preferably higher than 50%, most preferred higher than 75%) are generally preferred for a generation and production of antibodies or fragments thereof, and/or T cell receptors or fragments thereof, as they show sufficient avidity to the MHC molecules and prevent dissociation of the MHC complexes.

| Substance | Peptide exchange (MHC class I binding score, peptide exchange yield) |
| --- | --- |
| 137 (KLIYKDLVSV; listed as Homo sapiens) [compound 137] | ++ (≥20% = ++) |
| 271 (VLIEYNFSI; listed as Homo sapiens) [compound 271] | +++ (≥50% = +++) |
| 93 (RLYGYFHDA; listed as Homo sapiens) [compound 93] | ++ (≥20% = ++) |
| 166 (LLGDSSFFL; listed as Homo sapiens) [compound 166] | +++ (≥50% = +++) |
| 168 (VIFEGEPMYL; listed as Homo sapiens) [compound 168] | +++ (≥50% = +++) |
| 79 (TVLEEIGNRV; listed as Homo sapiens) [compound 79] | ++ (≥20% = ++) |
| 277 (KLQEELNKV; listed as Homo sapiens) [compound 277] | +++ (≥50% = +++) |
| 109 (ILGSFELQL; listed as Homo sapiens) [compound 109] | +++ (≥50% = +++) |
| 29 (KMISAIPTL; listed as Homo sapiens) [compound 29] | ++ (≥20% = ++) |
| 185 (TLYQGLPAEV; listed as Homo sapiens) [compound 185] | ++ (≥20% = ++) |
| 151 (DISKRIQSL; listed as Homo sapiens) [compound 151] | ++ (≥20% = ++) |
| 161 (NLLDENVCL; listed as Homo sapiens) [compound 161] | ++++ (≥75% = ++++) |
| 188 (VLGEEQEGV; listed as Homo sapiens) [compound 188] | ++ (≥20% = ++) |
| 44 (AVFNLVHVV; listed as Homo sapiens) [compound 44] | +++ (≥50% = +++) |
| 163 (GLEERLYTA; listed as Homo sapiens) [compound 163] | ++ (≥20% = ++) |
| 251 (LLWGNLPEI; listed as Homo sapiens) [compound 251] | +++ (≥50% = +++) |
| 179 (TLGEIIKGV; listed as Homo sapiens) [compound 179] | +++ (≥50% = +++) |
| 193 (ALFHMNILL; listed as Homo sapiens) [compound 193] | +++ (≥50% = +++) |
| 268 (SLDKDIVAL; listed as Homo sapiens) [compound 268] | ++ (≥20% = ++) |
| 30 (IITEVITRL; listed as Homo sapiens) [compound 30] | +++ (≥50% = +++) |
| 80 (VLTGQVHEL; listed as Homo sapiens) [compound 80] | +++ (≥50% = +++) |
| 244 (NVAEIVIHI; listed as Homo sapiens) [compound 244] | +++ (≥50% = +++) |
| 108 (FIANLPPELKA; listed as Homo sapiens) [compound 108] | +++ (≥50% = +++) |
| 110 (QIQGQVSEV; listed as Homo sapiens) [compound 110] | ++ (≥20% = ++) |
| 218 (SLTGANITV; listed as Homo sapiens) [compound 218] | +++ (≥50% = +++) |
| 129 (KMASKVTQV; listed as Homo sapiens) [compound 129] | ++ (≥20% = ++) |
